Article doi:10.1101/2025.01.06.631460 (bioRxiv, 2025)

Molecular target: the molecule itself
Experiment: single molecule photobleaching

B1: CNGC14-GFP (natural protein, Arabidopsis thaliana, UniProt Q9SJA4 1-726, looked up)
chain: MEFKRDNTVRFYGDEKQTIEVGEKRVPLFKSTTAPFMKQEVLPKKSKTRLKIPRFGRFKVFPENFEIERDKILDPGGDAVLQWNRVFLFWCLVALYVDPLFFFLSSVKRIGRSSCMTTDLKLGIVITFFRTLADLFYVLHIVIKFRTAYVSRTSRVFGRGELVKDPKLIARRYLRSDFIVDLIACLPLPQIVSWFILPSIRSSHSDHTTNALVLIVLVQYIPRLYLIFPLSAEIIKATGVVTTTAWAGAAYNLLQYMLASHILGSAWYLLSIERQATCWKAECHKESVPLQCVTDFFDCGTLHRDDRNNWQNTTVVFSNCDPSNNIQFTFGIFADALTKNVVSSPFLEKYLYCLWFGLQNLSSYGQNLSTSTSVLETMFAILVAIFGLVLFALLIGNMQTYLQSITVRLEEWRLKRRDTEEWMGHRLLPQNLRERVRRFVQYKWLATRGVDEETILHSLPADLRRDIQRHLCLDLVRRVPLFAQMDDQLLDAICERLASSLSTQGNYIVREGDPVTEMLFIIRGKLESSTTNGGRTGFFNSITLRPGDFCGEELLAWALLPKSTVNLPSSTRTVRALEEVEAFALQAGDLKFVANQFRRLHSKKLQHTFRYYSHQWRTWAACFVQVAWRRYKRKKLAKSLSLAESFSSYDEEEAVAVAATEEMSHEGEAQSGAKARHHTSNVKPHFAATILASRFAKNTRRTAHKLKDVEIPMLPKPDEPDFSVDD
For B1, which “stoichiometry N” value is on record?
Its value is 4.
